Residue numbers refer to the chain shown, from its start. Names may count otherwise. “Also recorded” adds a separate entry of the source.
T1: ovalbumin, P01012
T1 chain: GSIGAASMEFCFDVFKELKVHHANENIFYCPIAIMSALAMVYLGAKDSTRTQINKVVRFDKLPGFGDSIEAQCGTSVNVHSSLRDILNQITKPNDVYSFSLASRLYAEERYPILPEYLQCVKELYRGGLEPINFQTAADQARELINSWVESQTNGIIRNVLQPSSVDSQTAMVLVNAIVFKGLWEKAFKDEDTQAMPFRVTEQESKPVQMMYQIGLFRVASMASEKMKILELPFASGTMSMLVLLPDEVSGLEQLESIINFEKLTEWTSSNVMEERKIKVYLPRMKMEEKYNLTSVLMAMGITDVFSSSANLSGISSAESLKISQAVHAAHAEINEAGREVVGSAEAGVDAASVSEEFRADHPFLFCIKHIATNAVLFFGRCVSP

B1: S2Y mutant MTG (Ser2 replaced with Tyr, in Met type MTG) (protein)
chain: MDYDDRVTPPAEPLDRMPDPYRPSYGRAETVVNNYIRKWQQVYSHRDGRKQQMTEEQREWLSYGCVGVTWVNSGQYPTNRLAFASFDEDRFKNELKNGRPRSGETRAEFEGRVAKESFDEEKGFQRAREVASVMNRALENAHDESAYLDNLKKELANGNDALRNEDARSPFYSALRNTPSFKERNGGNHDPSRMKAVIYSKHFWSGQDRSSSADKRKYGDPDAFRPAPGTGLVDMSRDRNIPRSPTSPGEGFVNFDYGWFGAQTEADADKTVWTHGNHYHAPNGSLGAMHVYESKFRNWSEGYSDFDRGAYVITFIPKSWNTAPDKVKQGWP
B2: S2R mutant MTG (Ser2 replaced with Arg, in Met type MTG) (protein)
chain: B1 chain with Y3R
B3: S2D mutant MTG (Ser2 replaced with Asp, in Met type MTG) (protein)
chain: B1 chain with Y3D
B4: transglutaminase derived from Streptoverticillium mobaraense (MTG), wild type (protein)
chain: DSDDRVTPPAEPLDRMPDPYRPSYGRAETVVNNYIRKWQQVYSHRDGRKQQMTEEQREWLSYGCVGVTWVNSGQYPTNRLAFASFDEDRFKNELKNGRPRSGETRAEFEGRVAKESFDEEKGFQRAREVASVMNRALENAHDESAYLDNLKKELANGNDALRNEDARSPFYSALRNTPSFKERNGGNHDPSRMKAVIYSKHFWSGQDRSSSADKRKYGDPDAFRPAPGTGLVDMSRDRNIPRSPTSPGEGFVNFDYGWFGAQTEADADKTVWTHGNHYHAPNGSLGAMHVYESKFRNWSEGYSDFDRGAYVITFIPKSWNTAPDKVKQGWP
B5: Sg4 mutant MTG (residue Nos. 241 to 252 replaced with 3 glycine residues) (protein)
chain: DSDDRVTPPAEPLDRMPDPYRPSYGRAETVVNNYIRKWQQVYSHRDGRKQQMTEEQREWLSYGCVGVTWVNSGQYPTNRLAFASFDEDRFKNELKNGRPRSGETRAEFEGRVAKESFDEEKGFQRAREVASVMNRALENAHDESAYLDNLKKELANGNDALRNEDARSPFYSALRNTPSFKERNGGNHDPSRMKAVIYSKHFWSGQDRSSSADKRKYGDPDAFRPAPGTGLVDMSRDRNIGGGNFDYGWFGAQTEADADKTVWTHGNHYHAPNGSLGAMHVYESKFRNWSEGYSDFDRGAYVITFIPKSWNTAPDKVKQGWP
B6: Ser-type MTG (mutant in which Asp1 has been removed, starts with Ser2) (protein)
chain: SDDRVTPPAEPLDRMPDPYRPSYGRAETVVNNYIRKWQQVYSHRDGRKQQMTEEQREWLSYGCVGVTWVNSGQYPTNRLAFASFDEDRFKNELKNGRPRSGETRAEFEGRVAKESFDEEKGFQRAREVASVMNRALENAHDESAYLDNLKKELANGNDALRNEDARSPFYSALRNTPSFKERNGGNHDPSRMKAVIYSKHFWSGQDRSSSADKRKYGDPDAFRPAPGTGLVDMSRDRNIPRSPTSPGEGFVNFDYGWFGAQTEADADKTVWTHGNHYHAPNGSLGAMHVYESKFRNWSEGYSDFDRGAYVITFIPKSWNTAPDKVKQGWP
B7: del 1-3 mutant MTG (residue Nos. 1 to 3 removed) (protein)
chain: DRVTPPAEPLDRMPDPYRPSYGRAETVVNNYIRKWQQVYSHRDGRKQQMTEEQREWLSYGCVGVTWVNSGQYPTNRLAFASFDEDRFKNELKNGRPRSGETRAEFEGRVAKESFDEEKGFQRAREVASVMNRALENAHDESAYLDNLKKELANGNDALRNEDARSPFYSALRNTPSFKERNGGNHDPSRMKAVIYSKHFWSGQDRSSSADKRKYGDPDAFRPAPGTGLVDMSRDRNIPRSPTSPGEGFVNFDYGWFGAQTEADADKTVWTHGNHYHAPNGSLGAMHVYESKFRNWSEGYSDFDRGAYVITFIPKSWNTAPDKVKQGWP
B8: Sg7 mutant MTG (residue Nos. 278 to 287 replaced with 3 glycine residues) (protein)
chain: DSDDRVTPPAEPLDRMPDPYRPSYGRAETVVNNYIRKWQQVYSHRDGRKQQMTEEQREWLSYGCVGVTWVNSGQYPTNRLAFASFDEDRFKNELKNGRPRSGETRAEFEGRVAKESFDEEKGFQRAREVASVMNRALENAHDESAYLDNLKKELANGNDALRNEDARSPFYSALRNTPSFKERNGGNHDPSRMKAVIYSKHFWSGQDRSSSADKRKYGDPDAFRPAPGTGLVDMSRDRNIPRSPTSPGEGFVNFDYGWFGAQTEADADKTVWTHGNHGGGMHVYESKFRNWSEGYSDFDRGAYVITFIPKSWNTAPDKVKQGWP
B9: del 1-2 mutant MTG (residue Nos. 1 and 2 removed) (protein)
chain: DDRVTPPAEPLDRMPDPYRPSYGRAETVVNNYIRKWQQVYSHRDGRKQQMTEEQREWLSYGCVGVTWVNSGQYPTNRLAFASFDEDRFKNELKNGRPRSGETRAEFEGRVAKESFDEEKGFQRAREVASVMNRALENAHDESAYLDNLKKELANGNDALRNEDARSPFYSALRNTPSFKERNGGNHDPSRMKAVIYSKHFWSGQDRSSSADKRKYGDPDAFRPAPGTGLVDMSRDRNIPRSPTSPGEGFVNFDYGWFGAQTEADADKTVWTHGNHYHAPNGSLGAMHVYESKFRNWSEGYSDFDRGAYVITFIPKSWNTAPDKVKQGWP

How the values were obtained:
[1] = target: T1, ovalbumin, P01012
[2] = target: insulin A chain wherein cysteine residue had been oxidized (Sigma)
insulin A chain wherein cysteine residue had been oxidized (Sigma), sequence (chain, as listed by the source): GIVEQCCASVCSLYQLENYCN

Protein	15N-labeling rate of the ovalbumin glutamine residue giving signal "a" [1]	groups of 1H-15N HSQC signals of 15N-labeled ovalbumin glutamine residues after 6 hours [1]	further results
B1	the order of the 15N-labeling rate was S2Y<S2D<wild type<S2R		
B2	the order of the 15N-labeling rate was S2Y<S2D<wild type<S2R		
B3	the order of the 15N-labeling rate was S2Y<S2D<wild type<S2R		
B4	the order of the 15N-labeling rate was S2Y<S2D<wild type<S2R	6 groups of the signals were found when the wild type was used	15N-labeled residue identified by mass spectrometry [2]: in the two glutamine residues in insulin A chain, the 15th glutamine residue was the substrate of MTG
B5		only 3 groups and 2 groups of the signals were found when Sg4 and Sg7 were used, respectively	
B6			15N-labeling rate of the ovalbumin glutamine residue giving signal "a" (1H-15N HSQC peak intensity vs. reaction time) [1]: more rapidly 15N-labeled when it was reacted with the Ser-type rather than when reacted with the wild type
B7			reactivity to the ovalbumin glutamine residue giving signal "a" (1H-15N HSQC peak intensity vs. reaction time) [1]: the reactivity of each of del 1-2 and del 1-3 was improved as compared with that of the wild type; also recorded: the reactivity of del 1-3 was even much higher than that of Ser type or S2R
B8		only 3 groups and 2 groups of the signals were found when Sg4 and Sg7 were used, respectively	
B9			reactivity to the ovalbumin glutamine residue giving signal "a" (1H-15N HSQC peak intensity vs. reaction time) [1]: the reactivity of each of del 1-2 and del 1-3 was improved as compared with that of the wild type
